T1: recombinant His-tagged human IL-2Rβ (human, UniProt P14784 27-240, limits assumed)
T1 construct: also called IL-2Rβ-HIS; IL-15Rβ-HIS
T1 sequence (looked up): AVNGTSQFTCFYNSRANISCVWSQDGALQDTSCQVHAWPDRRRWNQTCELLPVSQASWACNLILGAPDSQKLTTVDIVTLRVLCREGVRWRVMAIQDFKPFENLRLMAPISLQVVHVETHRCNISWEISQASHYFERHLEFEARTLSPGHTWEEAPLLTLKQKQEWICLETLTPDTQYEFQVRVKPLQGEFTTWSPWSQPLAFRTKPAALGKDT

T2: recombinant His-tagged human IL-2Rα (human, UniProt P01589 22-213, limits assumed)
T2 construct: also called IL-2Rα-HIS; CD25
T2 sequence (looked up): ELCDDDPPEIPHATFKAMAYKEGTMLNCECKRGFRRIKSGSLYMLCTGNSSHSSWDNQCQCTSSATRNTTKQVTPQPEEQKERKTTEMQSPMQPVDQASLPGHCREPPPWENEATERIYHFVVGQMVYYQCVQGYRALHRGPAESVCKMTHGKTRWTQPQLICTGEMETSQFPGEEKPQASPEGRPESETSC


Experiments:
[1] = target: T1, recombinant His-tagged human IL-2Rβ; assay: SPR, Protein A capture, IL-2Rβ-HIS analyte
Protocol: (§1) The assay was run with Biacore T200 control software version 2.0. For each cycle, 1 μg/mL of anti-hPD-L1/IL-2 was captured for 60 seconds at flow rate of 10 μL/min on flow cell 2 in 1×HBSP buffer on Protein A sensor chip. […] The flow cells were then regenerated with Glycine pH2 for 60 seconds at flow rate of 30 μL/min. […] The specific binding response unit was derived from subtraction of binding to reference flow cell 1 from antibody captured flow cell 2.

[2] = target: T3, human PD-L1-HIS tagged recombinant protein (human, UniProt Q9NZQ7 19-238); assay: SPR, Protein A capture, PD-L1-HIS analyte
T3 construct: also called hPD-L1-HIS; PD-L1 HIS tagged protein
Protocol: as §1

[3] = target: T2, recombinant His-tagged human IL-2Rα; assay: ELISA, coated His-tagged human IL-2Rα, OD 450 nm
Protocol: (§2) For monovalent IL-2 Fc-fusion proteins, recombinant His-tagged human IL-2Rα and IL-2Rβ were added in 25 μL of 1×PBS to wells of 384-well plate and incubated overnight at 4° C. to coat the plates. Plates were washed three times with 0.05% Tween20/1×PBS. Plates were blocked with 100 μL of SuperBlock for 1 hr at RT and then washed 3 times with 0.05% Tween20/1×PBS. IL-2 mutants were diluted in 0.05% Tween 20/1×PBS from 1000 nM to 0 nM and added to plates for 2 hrs at room temperature. Plates were then washed 6 times with 0.05% Tween20/1×PBS. Anti-HisTag-HRP was diluted 1:5000 in 0.05% Tween20/1×PBS and added to plates for 1 hr at RT. Plates were then washed 6 times with 0.05% Tween 20/1×PBS, and TMB was added to develop blue color. Reactions were stopped with 2N […] and light absorbance at 450 nm was read on a BioTek plate reader. Absorbance versus IL-2 concentration is graphed for human IL-2Rα and IL-2Rβ.
A 384 well plate was immobilized with anti-human Fc at final concentration of 2 μg/mL in 1×PBS in total volume of 25 μL per well. The plate was incubated overnight at 4C followed by blocking with 80 μL of superblock per well for 1 hour. […] In between each step, the plate was washed 3 times with 1×PBST in a plate washer. […] The plate was read at OD450 nm Biotek plate reader and the binding correlation was plotted with Prism 8.1 software. […]

[4] = target: T1, recombinant His-tagged human IL-2Rβ; assay: ELISA, coated His-tagged IL-2Rβ
Protocol: as §2, with “IL-2Rβ. […]” for “IL-2Rβ.”

biotinylated PD-L1 = biotinylated PD-L1 (Homo sapiens (Human), UniProt Q9NZQ7 19-238, biotinylated; site not stated); assay: ELISA, anti-human Fc capture, biotinylated PD-L1
Protocol: A 384 well plate was immobilized with anti-human Fc at final concentration of 2 μg/mL in 1×PBS in total volume of 25 μL per well. The plate was incubated overnight at 4C followed by blocking with 80 μL of superblock per well for 1 hour. […] In between each step, the plate was washed 3 times with 1×PBST in a plate washer. The plate was then developed with 25 μL of TMB substrate for 5 min and stopped by adding 25 μL of 2N sulfuric acid. The plate was read at OD450 nm Biotek plate reader and the binding correlation was plotted with Prism 8.1 software. The ELISA binding assays of the antibodies to IL-2Rα and IL-2Rβ receptors were performed as described in Example 6.

[5] = target: T4, PD-L1 biotinylated (PD-1/PD-L1 TR-FRET assay kit, BPS 72038) (Homo sapiens (Human), UniProt Q9NZQ7 19-238, biotinylated; site not stated); assay: HTRF competition, competitor PD-1-Eu
T4 construct: Kit reagent
Protocol: Briefly, 1× Immuno buffer 1 was made. […] For each well in 384-well plate, serial diluted scFvs and regents were added according to manufacturer's recommended volume. Samples were incubated at room temperature for 1.5 hours then the fluorescent intensity was read with Biotek Neo2 plate reader using manufacture's instrument setting for the assay.

[6] = target: T1, recombinant His-tagged human IL-2Rβ; assay: SPR, Protein A capture, IL-2Rβ-HIS analyte, steady state affinity
Protocol: as §1

[7] = target: PD-L1 on PD-L1 aAPC/CHOK1 cells (Promega J1250); assay: cell-based or functional assay
[8] = target: T5, full-length human PD-L1 on K562 cells (human, UniProt Q9NZQ7 19-290); assay: FACS, PD-L1/K562 cells
T5 construct: also called PD-L1/K562; cell surface human PD-L1
Protocol: Cells were spun down at 1200 rpm for 5 minutes at 4° C. to remove primary antibodies. Cells were then washed once with 200 μL of full medium per well. […] Samples were spun down at 1200 rpm for 5 minutes at 4° C. and washed twice with 200 μL of 1×PBS per well. Samples were reconstituted in 200 μL of 1×PBS and were read on Attune NxT cytometer.
(§3) The production, the binding, and all of the characterization assays for selected affinity matured scFv clones were performed as described above.

human PD-L1-Fc [9] = target: T6, human PD-L1-Fc (human, UniProt Q9NZQ7 19-238); assay: SPR, PD-L1-Fc captured, scFv analyte
T6 construct: also called recombinant PD-L1-Fc fusion protein
Protocol: The assay was run with Biacore T200 control software version 2.0. Anti-human Fc antibody was immobilized on flow cell 1 and 2 of CM5 sensor chip. […] The flow cells were then regenerated with antibody regeneration buffer (GE Healthcare) for 30 seconds at flow rate of 30 μl/min.
as §3

human PD-L1-Fc [10] = target: T6, human PD-L1-Fc; assay: ELISA, coated PD-L1-Fc, anti-FLAG HRP
Protocol: The plate was incubated overnight at 4° C. followed by blocking with 80 μL of superblock per well for 1 hour. […] In between each step, the plate was washed 3 times with 1×PBST in a plate washer. The plate was then developed with 20 μL of TMB substrate for 5 min and stopped by adding 20 μL of 2N sulfuric acid. The plate was read at OD450 nm Biotek plate reader and then plotted in Prism 8.1 software.
as §3

human PD-L1-Fc [11] = target: T6, human PD-L1-Fc; assay: SPR, PD-L1-Fc captured, scFv analyte; exponent sign missing in print, value set to E-03 from the same row's KD x kon

Kd [1] [pM] | koff [1] [s⁻¹] | kon [1] [M⁻¹ s⁻¹] | Kd [2] [pM] | koff [2] [s⁻¹] | kon [2] [M⁻¹ s⁻¹] | EC50 [4] [pM] | EC50 (biotinylated PD-L1) [pM] | IC50 [5] [pM] | Kd [6] [pM] | NFAT reporter EC50 [7] [pM] | EC50 [8] [pM] | Kd (human PD-L1-Fc [9]) [pM] | kon (human PD-L1-Fc [9]) [M⁻¹ s⁻¹] | EC50 (human PD-L1-Fc [10]) [pM] | koff (human PD-L1-Fc [11]) [s⁻¹] | Binder | binding result [3]
6500 | 0.0107 | 1.65e+06 | 507 | 0.000247 | 487000 | 545 | 346 | – | – | – | – | – | – | – | – | IL-2/anti-PD-L1 scFv Fc EP413/EP326 (bispecific antibody, IL2 EP001 carrying K35L/R38D/F42R) chain 1: not shown chain 2: QVQLVQSGAEVKKPGSSVKVSCKASGGTFSSYAISWVRQAPGQGLEWMGGIIPIFGTANYAQKFQGRVTITADESTSTAYMELSSLRSEDTAVYYCARDKWYGSAWRGDYWGQGTLVTVSSGGGGSGGGGSGGGGSQSVLTQPPSASGTPGQRVTISCSGSYSNIGSNFVNWYQQLPGTAPKLLIHFNNQRPSGVPDRFSGSRSGTSASLAISGLQSEDEADYFCSTWDDSLKGPIFGGGTKLTVLDKTHTCPPCPAPEAAGGPSVFLFPPKPKDTLMISRTPEVTCVVVDVSHEDPEVKFNWYVDGVEVHNAKTKPREEQYNSTYRVVSVLTVLHQDWLNGKEYKCKVSNKALGAPIEKTISKAKGQPREPQVCTLPPSRDELTKNQVSLSCAVKGFYPSDIAVEWESNGQPENNYKTTPPVLDSDGSFKLVSKLTVDKSRWQQGNVFSCSVMHEALHNHYTQKSLSLSPGK | no binding (tested: LOG(IL-2(nM)) 2 (100 nM))
– | – | – | 547 | – | – | – | 287 | 346000 | 75800 | 9070 | – | – | – | – | – | IL-2/anti-PD-L1 scFv Fc EP418/EP326 (bispecific antibody, IL2 EP340) chain 1: not shown chain 2: QVQLVQSGAEVKKPGSSVKVSCKASGGTFSSYAISWVRQAPGQGLEWMGGIIPIFGTANYAQKFQGRVTITADESTSTAYMELSSLRSEDTAVYYCARDKWYGSAWRGDYWGQGTLVTVSSGGGGSGGGGSGGGGSQSVLTQPPSASGTPGQRVTISCSGSYSNIGSNFVNWYQQLPGTAPKLLIHFNNQRPSGVPDRFSGSRSGTSASLAISGLQSEDEADYFCSTWDDSLKGPIFGGGTKLTVLDKTHTCPPCPAPEAAGGPSVFLFPPKPKDTLMISRTPEVTCVVVDVSHEDPEVKFNWYVDGVEVHNAKTKPREEQYNSTYRVVSVLTVLHQDWLNGKEYKCKVSNKALGAPIEKTISKAKGQPREPQVCTLPPSRDELTKNQVSLSCAVKGFYPSDIAVEWESNGQPENNYKTTPPVLDSDGSFKLVSKLTVDKSRWQQGNVFSCSVMHEALHNHYTQKSLSLSPGK | –
– | – | – | – | – | – | – | – | – | – | – | 221 | 2580 | 1.76e+06 | 507 | 0.00454 | 2019EP69-C05 scFv (scFv, V domains shown) VH: QVQLVQSGAEVKKPGSSVKVSCKASGGTFSSYAISWVRQAPGQGLEWMGGIIPIFGTANYAQKFQGRVTITADESTSTAYMELSSLRSEDTAVYYCARDKGYGSGFRGDYWGQGTLVTVSS VL: QSVLTQPPSASGTPGQRVTISCSGSYSNIGSNFVNWYQQLPGTAPKLLIHFNNQRPSGVPDRFSGSRSGTSASLAISGLQSEDEADYFCSTWDDSLKGPIFGGGTKLTVL | –

From patent US20250340646A1 (ELPIS BIOPHARMACEUTICALS, published 2025)
